This test concerns the target human MIP-1α (human) (UniProt P10147). Nature of the test: 125I-MIP-1α bound to cells with 200X molar excess M-T1, Exp. 1.

The values below come from patent publication EP0901379B1.

Sequence of UniProt P10147 (P10147 24-92 limits assumed): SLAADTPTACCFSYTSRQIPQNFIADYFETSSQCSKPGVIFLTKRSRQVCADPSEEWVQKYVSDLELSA

Turning to myxoma T1 protein (M-T1), the Surface Bound MIP-1α was found to be 978 cpm.
